In publication PMC2955292 (Chemistry & biology, 2010):
Several values for one entry are separate records, joined by “and”; a condition that tells them apart may be missing. Equal entries are not always repeated.

Biological target: the molecule itself
Experiment: AUC

B1: Escherichia coli ClpP (enzyme)
chain: not shown
  stoichiometry N: 14 and 7
